Reference: patent publication US20070111947A1, “Fibrin targeted therapeutics” (priority 2005, published 2007)

System: arterial thrombosis (FeCl3 damaged carotid artery)
Experiment: Arterial thrombosis model (FeCl3 damaged carotid artery)
Assay type: in vivo, rabbit
Protocol: Rabbits are initially sedated with a subcutaneous injection of Xylazine (5 mg/kg). Approximately 5 min following sedation, the animals are anesthetized with a dose of Ketamine (50 mg/kg) and Acepromazine (2.5 mg/kg) intramuscularly to achieve the appropriate level of anesthesia. Anesthetic depth will be assessed using the pain withdraw reflexes and EKG. Anesthesia is given intravenously every 45-60 min at 5-10 mg/kg to maintain proper anesthetic depth.
Left carotid artery is isolated using a ventral midline approach. A stenosis is initiated on the carotid artery reducing blood flow by 70-80%. 1 cm segments of carotid artery are placed in a plastic tube opened lengthwise, together with a filter paper (diameter 3 mm) soaked in ferric chloride (FeCl3, 40 μL, 40% w/w). After 15-30 min exposure of the artery to FeCl3, the plastic tube with the filter paper is removed and the artery is rinsed with saline. The time to vessel occlusion is monitored using a Doppler flow probe, which is attached to the carotid artery. ^125I fibrinogen (30 μCi/kg) is administered 5 min before initiation of the stenosis. The saline, test or control compounds are given via the jugular vein as an intravenous bolus injection immediately before or at the end of FeCl3 exposure. Blood sample are collected at 1, 3, 5, 12, 20, 30, 45, 60 and 90 min after compound injection via the contra lateral jugular vein. The time that blood flow dropped to zero is recorded as the occlusion time of blood vessel. At the end of experiment, animals are sacrificed with an overdose of pentobarbital (120 mg/kg). Both the clot from the FeCl3 damaged artery, and the damaged artery after clot removal are weighed. Right carotid artery is used as a control. Concentration of test compound and fibrin in the clot are detected by γ-countering.
Pharmacokinetics of compound are analyzed by using the WinNonLin program.

[1] = compared to an equivalent dose of Non-binder control, FIG. 4

With `CCC(C)[C@H](CC(=O)[C@@H](C)Cc1c[nH]cn1)C(=O)N[C@@H](CC(C)C)C(=O)NCc1ccc(CCC(=O)[C@H](CCNC(=O)CC[C@H]2C(=O)[O][Y]345[O]C(=O)CN(CCN2CCN(CC(=O)[O]3)CC(=O)[O]4)CC(=O)[O]5)NC(=O)CC[C@H]2C(=O)[O][Y]345[O]C(=O)CN(CCN2CCN(CC(=O)[O]3)CC(=O)[O]4)CC(=O)[O]5)cc1` (stereo partly shown) [Hybrid Molecule 3] the “higher level bound to clot” value [1] was 5 fold, the “higher level bound to clot plus damaged artery” value [1] was 2 fold and the “increased time to occlusion” value (compared to an equivalent dose of melagatran alone or the Non-binder, FIG. 2) was “approximately 4 fold”. For the same compound, the “decrease in clot weight” value (compared to an equivalent dose of melagatran or Non-binder control, FIG. 3) was “approximately 2 fold”.
